# Molecular target: HLA-PEPTIDE target G8: HLA-A*02:01_…, recombinant soluble complex (human, enzymatically biotinylated (BirA) for screening and BLI)
# Assay: phage display, scFv ELISA on pHLA against negative control pHLAs
row,binding result,Binder
1,binds,"scFv G8(1H08) (scFv, V domains shown, also called G8-P1H08) VH: QVQLVQSGAEVKKPGASVKVSCKASGYTFGNYFMHWVRQAPGQGLEWMGMVNPSGGSETFAQKFQGRVTMTRDTSTSTVYMELSSLRSEDTAVYYCAASTWIQPFDYWGQGTLVTVSS VL: DIQMTQSPSSLSASVGDRVTITCRASQGINSYLAWYQQKPGKAPKLLIYDASNLETGVPSRFSGSGSGTDFTLTISSLQPEDFATYYCQQHNSYPPTFGQGTKLEIK"
2,binds,"scFv G8(2B05) (scFv, V domains shown) VH: EVQLLESGGGLVQPGGSLRLSCAASGFDFSIYSMNWVRQAPGKGLEWVSAISGSGGSTYYADSVKGRFTISRDNSKNTLYLQMNSLRAEDTAVYYCASNGNYYGSGSYYNYWGQGTLVTVSS VL: DIQMTQSPSSLSASVGDRVTITCRASQSISRWLAWYQQKPGKAPKLLIYAASSLQSGVPSRFSGSGSGTDFTLTISSLQPEDFATYYCQQYSTYPITIGQGTKVEIK"
3,binds,"scFv G8(1A04) (scFv, V domains shown) VH: QVQLVQSGAEVKKPGASVKVSCKASGYPFIGQYLHWVRQAPGQGLEWMGIINPSGDSATYAQKFQGRVTMTRDTSTSTVYMELSSLRSEDTAVYYCARDLSYYYGMDVWGQGTTVTVSS VL: DIQMTQSPSSLSASVGDRVTITCWASQGISSYLAWYQQKPGKAPKLLIYAASSLQSGVPSRFSGSGSGTDFTLTISSLQPEDFATYYCQQSYNTPWTFGPGTKVDIK"
4,binds,"scFv G8(1D02) (scFv, V domains shown) VH: EVQLLESGGGLVQPGGSLRLSCAASGFTFSSYWMSWVRQAPGKGLEWVSSISGRGDNTYYADSVKGRFTISRDNSKNTLYLQMNSLRAEDTAVYYCARASGSGYYYYYGMDVWGQGTTVTVSS VL: DIQMTQSPSSLSASVGDRVTITCQASQDISNYLNWYQQKPGKAPKLLIYAASSLQSGVPSRFSGSGSGTDFTLTISSLQPEDFATYYCQQSYSAPYTFGGGTKVEIK"
5,binds,"scFv G8(1B03) (scFv, V domains shown) VH: EVQLLESGGGLVQPGGSLRLSCAASGFTFSDYYMSWVRQAPGKGLEWVSGINWNGGSTGYADSVKGRFTISRDNSKNTLYLQMNSLRAEDTAVYYCARVEQGYDIYYYYYMDVWGKGTTVTVSS VL: DIQMTQSPSSLSASVGDRVTITCRASQSISSYLNWYQQKPGKAPKLLIYKASSLESGVPSRFSGSGSGTDFTLTISSLQPEDFATYYCQQSYSAPYTFGPGTKVDIK"
6,binds,"scFv G8(2E06) (scFv, V domains shown) VH: QVQLVQSGAEVKKPGASVKVSCKASGYTLTTYYMHWVRQAPGQGLEWMGWINPNSGGTNYAQKFQGRVTMTRDTSTSTVYMELSSLRSEDTAVYYCARAVYYDFWSGPFDYWGQGTLVTVSS VL: DIQMTQSPSSLSASVGDRVTITCRASQGISNSLAWYQQKPGKAPKLLIYAASSLQSGVPSRFSGSGSGTDFTLTISSLQPEDFATYYCQQANSFPWTFGQGTKLEIK"
7,binds,"scFv G8(1A06) (scFv, V domains shown) VH: QVQLVQSGAEVKKPGASVKVSCKASGYTFTNYYMHWVRQAPGQGLEWMGWMNPIGGGTGYAQKFQGRVTMTRDTSTSTVYMELSSLRSEDTAVYYCARVYDFWSVLSGFDIWGQGTLVTVSS VL: DIQMTQSPSSLSASVGDRVTITCRASQAISNSLAWYQQKPGKAPKLLIYAASTLQSGVPSRFSGSGSGTDFTLTISSLQPEDFATYYCGQSYSTPPTFGQGTKLEIK"
8,binds,"scFv G8(1A03) (scFv, V domains shown) VH: QVQLVQSGAEVKKPGASVKVSCKASGGTFSRSAITWVRQAPGQGLEWMGWINPNSGATNYAQKFQGRVTMTRDTSTSTVYMELSSLRSEDTAVYYCARDDYGDYVAYFQHWGQGTLVTVSS VL: DIQMTQSPSSLSASVGDRVTITCRASQSITSYLNWYQQKPGKAPKLLIYDASNLETGVPSRFSGSGSGTDFTLTISSLQPEDFATYYCQQNYNSVTFGQGTKLEIK"

# Reference: patent US20220162320A1 (published 2022)
